From paper PMC5464768, “ER retention is imposed by COPII protein sorting and attenuated by 4-phenylbutyrate” (eLife, 2017)

Molecular target: T1, 5-Fam-[…] (vesicular stomatitis virus)
T1 construct: also called fluorescent tracer peptide; fluorescent probe
Assay: fluorescence polarisation
Details: both partners purified

B1: Sec24a (△1–340) (domain or fragment)
chain: LSLQPEGLRVVNLLQERNMLPSTPLKPPVPNLHEDIQKLNCNPELFRCTLTSIPQTQALLNKAKLPLGLLLHPFKDLVQLPVVTSSTIVRCRSCRTYINPFVSFLDQRRWKCNLCYRVNDVPEEFLYNPLTRVYGEPHRRPEVQNATIEFMAPSEYMLRPPQPPVYLFVFDVSHNAVETGYLNSVCQSLLDNLDLLPGNTRTKIGFITFDSTIHFYGLQESLSQPQMLIVSDIEDVFIPMPENLLVNLNESKELVQDLLKTLPQMFTKTLETQSALGPALQAAFKLMSPTGGRMSVFQTQLPTLGVGALKPREEPNHRSSAKDIHMTPSTDFYKKLALDCSGQQVAVDLFLLSGQYSDLASLGCISRYSAGSVYYYPSYHHQHNPVQVQKLQKELQRYLTRKIGFEAVMRIRCTKGLSIHTFHGNFFVRSTDLLSLPNVNPDAGYAVQMSVEESLTDTQLVSFQSALLYTSSKGERRIRVHTLCLPVVSTLNDVFLGADVQAISGLLANMAVDRSMTASLSDARDALVNAVIDSLSAYRSSVLSNQQPGLMVPFSLRLFPLFVLALLKQKSFQTGTNARLDERIFAMCQVKNQPLVYLMLTTHPSLYRVDNLSDEGALNISDRTIPQPPILQLSVEKLSRDGAFLMDAGSVLMLWVGKNCTQNFLSQVLGVQNYASIPQPMTDLPELDTPESARIIAFISWLREQRPFFPILYVIRDESPMKANFLQNMIEDRTESALSYYEFLLHIQQQVNK
notes: Sec24a, H. sapiens, lacking residues 1–340 (△1–340); Purified alone for fluorescence polarization and as the complex with Sec23a for crystallography; also called human Sec24a; source: High Five insect cells (baculovirus), purified (HisTrap HP, HiTrap Q, Superdex 200); not shown: His6, N-terminal, cleaved
B1 showed a Kd of 14.2 µM.
